From publication PMC3433253 (Journal of molecular biology, 2012)
Values belong to the binder of their own block, whether it stands above or below them.

B1: CC2D1A(346-455) (domain or fragment, human, UniProt Q6P1N0 346-455, looked up)
chain: RTLLEALEQRMERYQVAAAQAKSKGDQRKARMHERIVKQYQDAIRAHKAGRAVDVAELPVPPGFPPIQGLEATKPTQQSLVGVLETAMKLANQDEGPEDEEDEVPKKQNS
B7: MBP-CHMP4B(7-110) (domain or fragment, UniProt Q9H444 7-110, looked up)
chain: LFGAGGGKAGKGGPTPQEAIQRLRDTEEMLSKKQEFLEKKIEQELTAAKKHGTKNKRAALQALKRKKRYEKQLAQIDGTLSTIEFQREALENANTNTEVLKNMG

Assays:
[1] = molecular target: T1, CHMP4B(23-97), MBP removed (UniProt Q9H444); assay: SEC-MALS
T1 sequence (Q9H444 23-97, species assumed, looked up): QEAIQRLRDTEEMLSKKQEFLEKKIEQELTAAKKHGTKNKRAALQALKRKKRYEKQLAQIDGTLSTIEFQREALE

MBP-CHMP4B(23-97) = molecular target: T2, MBP-CHMP4B(23-97) (UniProt Q9H444 23-97); assay: ITC
T2 sequence (looked up): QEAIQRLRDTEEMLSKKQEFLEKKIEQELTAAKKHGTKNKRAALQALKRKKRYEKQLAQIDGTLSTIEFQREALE

MBP-CHMP4B(7-110) = molecular target: B7; assay: ITC
CC2D1A(346-455) = molecular target: B1; assay: SPR
CC2D1B(1-601) [2] = molecular target: T3, CC2D1B(1-601) (UniProt Q5T0F9 1-601); assay: SEC-MALS
T3 sequence (looked up): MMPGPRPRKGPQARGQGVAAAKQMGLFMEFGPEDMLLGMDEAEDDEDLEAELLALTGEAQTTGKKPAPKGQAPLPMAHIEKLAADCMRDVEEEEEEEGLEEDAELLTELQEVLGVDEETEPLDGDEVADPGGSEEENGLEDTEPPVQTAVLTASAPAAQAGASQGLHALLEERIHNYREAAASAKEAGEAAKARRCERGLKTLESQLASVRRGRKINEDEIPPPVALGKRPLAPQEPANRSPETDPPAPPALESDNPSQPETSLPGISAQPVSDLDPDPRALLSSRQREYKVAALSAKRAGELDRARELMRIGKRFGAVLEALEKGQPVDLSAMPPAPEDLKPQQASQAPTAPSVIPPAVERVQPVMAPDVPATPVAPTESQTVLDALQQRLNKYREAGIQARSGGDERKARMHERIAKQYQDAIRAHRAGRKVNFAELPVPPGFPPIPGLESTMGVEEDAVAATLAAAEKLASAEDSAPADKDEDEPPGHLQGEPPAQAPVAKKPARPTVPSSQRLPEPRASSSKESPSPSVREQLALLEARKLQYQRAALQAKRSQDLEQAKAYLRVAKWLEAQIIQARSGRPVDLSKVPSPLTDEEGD

CC2D1B(1-601) [3] = molecular target: T3, CC2D1B(1-601); assay: ITC

Binder: B1
- stoichiometry N [1]: 1
- dH (MBP-CHMP4B(23-97)): -14600 kcal/mol
- stoichiometry N (MBP-CHMP4B(23-97)): 0.9
- dH (MBP-CHMP4B(7-110)): -8190 kcal/mol
- stoichiometry N (MBP-CHMP4B(7-110)): 0.9

- koff (CC2D1A(346-455)): 0.0079 s⁻¹
- kon (CC2D1A(346-455)): 25000 M⁻¹ s⁻¹
B2: MBP-CHMP4B(7-105) (domain or fragment, UniProt Q9H444 7-105, looked up)
chain: LFGAGGGKAGKGGPTPQEAIQRLRDTEEMLSKKQEFLEKKIEQELTAAKKHGTKNKRAALQALKRKKRYEKQLAQIDGTLSTIEFQREALENANTNTEV

- koff (CC2D1A(346-455)): 0.0017 s⁻¹
- kon (CC2D1A(346-455)): 1200 M⁻¹ s⁻¹
B3: MBP-CHMP4B(7-105)_(mut1) (domain or fragment, UniProt Q9H444 7-105, looked up)
chain: LFGAGGGKAGKGGPTPQEAIQALARTREMLSKKQEFLEKKIEQELTAAKKHGTKNKRAALQALKRKKRYEKQLAQIDGTLSTIEFQREALENANTNTEV

- dH (MBP-CHMP4B(7-110)): -8160 kcal/mol
- stoichiometry N (MBP-CHMP4B(7-110)): 1.03
B4: CC2D1A(346-494) (domain or fragment, human, UniProt Q6P1N0 346-494, looked up)
chain: RTLLEALEQRMERYQVAAAQAKSKGDQRKARMHERIVKQYQDAIRAHKAGRAVDVAELPVPPGFPPIQGLEATKPTQQSLVGVLETAMKLANQDEGPEDEEDEVPKKQNSPVAPTAQPKAPPSRTPQSGSAPTAKAPPKATSTRAQQQL

- dH (MBP-CHMP4B(7-110)): -7380 kcal/mol
- stoichiometry N (MBP-CHMP4B(7-110)): 0.84
B5: CC2D1A(309-494) (domain or fragment, human, UniProt Q6P1N0 309-494, looked up)
chain: SCLPPPPDQLPPDPPSPPSQPPTPATAPSTTEVPPPPRTLLEALEQRMERYQVAAAQAKSKGDQRKARMHERIVKQYQDAIRAHKAGRAVDVAELPVPPGFPPIQGLEATKPTQQSLVGVLETAMKLANQDEGPEDEEDEVPKKQNSPVAPTAQPKAPPSRTPQSGSAPTAKAPPKATSTRAQQQL

- stoichiometry N (CC2D1B(1-601) [2]): 1
B6: CHMP4B(7-110), MBP removed (domain or fragment, UniProt Q9H444 7-110, looked up)
chain: LFGAGGGKAGKGGPTPQEAIQRLRDTEEMLSKKQEFLEKKIEQELTAAKKHGTKNKRAALQALKRKKRYEKQLAQIDGTLSTIEFQREALENANTNTEVLKNMG

Binder: B7
- dH (CC2D1B(1-601) [3]): -13700 kcal/mol
- stoichiometry N (CC2D1B(1-601) [3]): 1.02
